Test results published in patent EP4775226A1, “ANTIBODY DRUG CONJUGATE TARGETING GPC3 AND USE THEREOF” (priority 2023, dated 2025).
Residue numbers refer to the chain shown, from its start. Each block holds one binder with its values, some of them ahead of it.

How the values were obtained:
[1] = molecular target: T1, human GPC3 (Glypican-3) (human, UniProt P51654 25-580); experiment: FACS on Huh-7 cells
T1 construct: whole, on cells; The cell line of each value is named under assay

[2] = molecular target: T1, human GPC3 (Glypican-3); experiment: FACS on HepG2 cells
[3] = molecular target: T1, human GPC3 (Glypican-3); experiment: FACS on GPC3-CHO-K1 cells (CHO-K1 overexpressing human GPC3)
[4] = molecular target: T1, human GPC3 (Glypican-3); experiment: FACS on Huh7 liver cancer cells
[5] = molecular target: T1, human GPC3 (Glypican-3); experiment: cell-based or functional assay
[6] = molecular target: T1, human GPC3 (Glypican-3); experiment: cell-based or functional assay; remark: listed apart in the source
[7] = molecular target: T1, human GPC3 (Glypican-3); experiment: cell-based or functional assay; remark: listed apart in the source

T1 sequence (P51654 25-580, form in doubt): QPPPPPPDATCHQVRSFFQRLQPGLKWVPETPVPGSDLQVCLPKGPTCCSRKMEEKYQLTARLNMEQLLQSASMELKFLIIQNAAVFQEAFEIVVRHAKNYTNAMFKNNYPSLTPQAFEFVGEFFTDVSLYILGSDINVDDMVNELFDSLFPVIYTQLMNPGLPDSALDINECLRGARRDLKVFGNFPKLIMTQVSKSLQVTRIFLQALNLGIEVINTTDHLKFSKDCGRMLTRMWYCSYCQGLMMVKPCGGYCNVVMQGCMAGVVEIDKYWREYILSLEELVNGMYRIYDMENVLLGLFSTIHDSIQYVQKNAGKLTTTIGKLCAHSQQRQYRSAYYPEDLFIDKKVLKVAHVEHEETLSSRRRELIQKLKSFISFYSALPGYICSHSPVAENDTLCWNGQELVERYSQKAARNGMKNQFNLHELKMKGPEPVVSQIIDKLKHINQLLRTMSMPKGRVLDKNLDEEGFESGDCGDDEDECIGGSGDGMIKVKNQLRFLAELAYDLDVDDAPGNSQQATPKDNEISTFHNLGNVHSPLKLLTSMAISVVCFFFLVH

B2: Hu 52H5D3B8-8 (antibody, human IgG1, kappa, V domains shown)
VH: EVQLVQSGAEVKKPGASVKVSCKASGYTFTDYEMHWVRQAPGQGLEWMGAIHPGSGGTAYNQKFKGRVTMTADKSISTAYMELSRLRSDDTAVYYCTRFYSYAYWGQGTLVTVSS
VL: DVVMTQTPLSLSVTPGQPASISCRSSQSLVHSNGNTYLQWYLQKPGQSPQLLIYKVSNRFSGVPDRFSGSGSGTDFTLKISRVEAEDVGVYFCSQSIHVPYTFGGGTKVEIKR
notes: also called humanized GPC3 antibody Hu 52H5D3B8-8; GPC3 antibody
- EC50 [4]: 0.0569 µg/mL
- EC50 [1]: 0.418 nM
- EC50 [2]: 0.351 nM
- Percentage reduction of GPC3 on cell surface (%), Huh7 cells, 0.5 h [5]: 18.6%
- Percentage reduction of GPC3 on cell surface (%), Huh7 cells, 1 h [5]: 37.1%
- Percentage reduction of GPC3 on cell surface (%), Huh7 cells, 2 h [5]: 52.8%
- Endocytosis on HepG2 cells, EC50 (pHAb dye-labelled secondary antibody) [6]: 0.78 µg/mL
- Endocytosis on HepG2 cells, Top [6]: 62400
- EC50 [3]: 0.411 nM

B4: Hu 52H5D3B8-8-MCC-AA-(3-cyano-L-alanine)-Exatecan (ADC-8) (antibody, human IgG1, kappa, DAR 8.0, V domains shown)
VH: B2 VH
VL: B2 VL
modifications: mcc-Ala-Ala-(3-cyano-L-alanine)-Exatecan on cysteine thiols freed by reduction of interchain disulfide bonds; DAR 8.0 for the whole antibody; positions not given
- EC50 value of cell killing activity in Huh7 cells [7]: 0.00734 µg/mL

B5: Hu 52H5D3B8-7-mcc-AAQ-Exatecan (ADC-7) (antibody, human IgG1, kappa, DAR 4.0, V domains shown)
VH: B2 VH
VL: B2 VL with F92Y
modifications: mcc-AAQ-Exatecan on cysteine thiols freed by partial reduction of interchain disulfide bonds; DAR 4.0 for the whole antibody; positions not given
- EC50 value of cell killing activity in Huh7 cells [7]: 0.0279 µg/mL

B6: Hu 52H5D3B8-8-mcc-AAQ-Exatecan (ADC-6) (antibody, human IgG1, kappa, DAR 4.0, V domains shown)
VH: B2 VH
VL: B2 VL
modifications: mcc-AAQ-Exatecan on cysteine thiols freed by partial reduction of interchain disulfide bonds; DAR 4.0 for the whole antibody; positions not given
- EC50 value of cell killing activity in Huh7 cells [7]: 0.0307 µg/mL

B8: Y035 CDRs with Hu 52H5D3B8-7 FRs (antibody, V domains shown)
VH: B2 VH with G57D, K63R
VL: DVVMTQTPLSLSVTPGQPASISCRSSQSLVHSNGNTYLQWYLQKPGQSPQLLIYKVSNRFSGVPDRFSGSGSGTDFTLKISRVEAEDVGVYYCSQSIYVPYTFGGGTKVEIK
notes: detected with anti-human IgG
- EC50 [1]: 0.667 nM
- EC50 [2]: 0.611 nM
- Endocytosis on HepG2 cells, EC50 (pHAb dye-labelled secondary antibody) [6]: 1.11 µg/mL
- Endocytosis on HepG2 cells, Top [6]: 52200
- EC50 [3]: 0.907 nM

B10: Hu 52H5D3B8-8-MCC-AAAAQ-Exatecan (ADC-9) (antibody, human IgG1, kappa, DAR 8.0, V domains shown)
VH: B2 VH
VL: B2 VL
modifications: mcc-Ala-Ala-Ala-Ala-Gln-Exatecan on cysteine thiols freed by reduction of interchain disulfide bonds; DAR 8.0 for the whole antibody; positions not given
- EC50 value of cell killing activity in Huh7 cells [7]: 0.00478 µg/mL

B11: Hu 52H5D3B8-7-mcc-AAQ-Exatecan (ADC-5) (antibody, human IgG1, kappa, DAR 7.9, V domains shown)
VH: B2 VH
VL: B2 VL with F92Y
modifications: mcc-AAQ-Exatecan on cysteine thiols freed by reduction of interchain disulfide bonds; DAR 7.9 for the whole antibody; positions not given
- EC50 value of cell killing activity in Huh7 cells [7]: 0.0164 µg/mL

Continued, in another order:

- EC50 [1]: 0.953 nM
- EC50 [2]: 0.745 nM
- EC50 [3]: 0.956 nM
B1: GC33 antibody (Chugai Pharmaceutical) (antibody, V domains shown)
VH: QVQLVQSGAEVKKPGASVKVSCKASGYTFTDYEMHWVRQAPGQGLEWMGALDPKTGDTAYSQKFKGRVTLTADKSTSTAYMELSSLTSEDTAVYYCTRFYSYTYWGQGTLVTVSS
VL: B8 VL with T7S, S12P, Q17E, Q39H, S96N, I97T, Y98H, Y101P, G105Q, V109L
notes: Control antibody; preparation described in US 7919086 B2; detected with anti-human IgG

- EC50 [4]: 0.061 µg/mL
- Percentage reduction of GPC3 on cell surface (%), Huh7 cells, 0.5 h [5]: 20.5%
- Percentage reduction of GPC3 on cell surface (%), Huh7 cells, 1 h [5]: 38.2%
- Percentage reduction of GPC3 on cell surface (%), Huh7 cells, 2 h [5]: 52.2%
B3: Hu 52H5D3B8-8-mcc-AAN-Exatecan (ADC-2) (antibody, human IgG1, kappa, DAR 8.0, V domains shown)
VH: B2 VH
VL: B2 VL
modifications: mcc-AAN-Exatecan on cysteine thiols freed by reduction of interchain disulfide bonds; DAR 8.0 for the whole antibody; positions not given
notes: also called Hu 52H5D3B8-8-MCC-AAN-Exa (ADC-2)
- EC50 value of cell killing activity in Huh7 cells [7]: 0.00939 µg/mL

- EC50 [4]: 0.0675 µg/mL
- Percentage reduction of GPC3 on cell surface (%), Huh7 cells, 0.5 h [5]: 18.9%
- Percentage reduction of GPC3 on cell surface (%), Huh7 cells, 1 h [5]: 36.2%
- Percentage reduction of GPC3 on cell surface (%), Huh7 cells, 2 h [5]: 50.2%
B7: Hu 52H5D3B8-8-mcc-AAQ-Exatecan (ADC-4) (antibody, human IgG1, kappa, DAR 8.0, V domains shown)
VH: B2 VH
VL: B2 VL
modifications: mcc-AAQ-Exatecan on cysteine thiols freed by reduction of interchain disulfide bonds; DAR 8.0 for the whole antibody; positions not given
notes: also called Hu 52H5D3B8-8-MCC-AAQ-Exa (ADC-4)
- EC50 value of cell killing activity in Huh7 cells [7]: 0.0149 µg/mL

- EC50 [4]: 0.0673 µg/mL
- Percentage reduction of GPC3 on cell surface (%), Huh7 cells, 0.5 h [5]: 17.9%
- Percentage reduction of GPC3 on cell surface (%), Huh7 cells, 1 h [5]: 32.9%
- Percentage reduction of GPC3 on cell surface (%), Huh7 cells, 2 h [5]: 52.2%
B9: Hu 52H5D3B8-8-mc-AAN-Exatecan (ADC-1) (antibody, human IgG1, kappa, DAR 8.0, V domains shown)
VH: B2 VH
VL: B2 VL
modifications: mc-AAN-Exatecan on cysteine thiols freed by reduction of interchain disulfide bonds; DAR 8.0 for the whole antibody; positions not given
notes: also called Hu 52H5D3B8-8-MC-AAN-Exa (ADC-1)
- EC50 value of cell killing activity in Huh7 cells [7]: 0.00359 µg/mL

- EC50 [4]: 0.0633 µg/mL
- Percentage reduction of GPC3 on cell surface (%), Huh7 cells, 0.5 h [5]: 20%
- Percentage reduction of GPC3 on cell surface (%), Huh7 cells, 1 h [5]: 32.8%
- Percentage reduction of GPC3 on cell surface (%), Huh7 cells, 2 h [5]: 50.1%
B12: Hu 52H5D3B8-8-mc-AAQ-Exatecan (ADC-3) (antibody, human IgG1, kappa, DAR 8.0, V domains shown)
VH: B2 VH
VL: B2 VL
modifications: mc-AAQ-Exatecan on cysteine thiols freed by reduction of interchain disulfide bonds; DAR 8.0 for the whole antibody; positions not given
notes: also called Hu 52H5D3B8-8-MC-AAQ-Exa (ADC-3)
- EC50 value of cell killing activity in Huh7 cells [7]: 0.0119 µg/mL

- EC50 [1]: 0.464 nM
- EC50 [2]: 0.405 nM
- Endocytosis on HepG2 cells, EC50 (pHAb dye-labelled secondary antibody) [6]: 0.72 µg/mL
- Endocytosis on HepG2 cells, Top [6]: 58600
- EC50 [3]: 0.446 nM
B13: Hu 52H5D3B8-7 (antibody, human IgG1, kappa, V domains shown)
VH: B2 VH
VL: B2 VL with F92Y
notes: also called humanized GPC3 antibody Hu 52H5D3B8-7
